Source: patent US20160208018A1 (JUNO THERAPEUTICS, published 2016)
Substitutions are numbered along the chain they refer to. Where two headings read alike, the source gives them in different places.

Columns and labels:
[1] = biological target: T1, Human ROR1 (receptor tyrosine kinase-like orphan receptor 1) (human, UniProt Q01973 30-937); experiment: flow cytometry on ROR1-expressing K562 and CHOK1 cells, mean (n = 2)
T1 construct: also called hROR1; K562/ROR1

[2] = biological target: T1, Human ROR1 (receptor tyrosine …); experiment: flow cytometry on ROR1-expressing K562 and CHOK1 cells, mean (n = 9)
[3] = biological target: T1, Human ROR1 (receptor tyrosine …); experiment: flow cytometry competition, competitor R12 scFv on ROR1-expressing cells, mean (n = 5)
Procedure: (§1) Assays also were performed to assess competition of the clones with the reference antibody (R12 scFv), for binding to ROR1-expressing cells. VH clones were titrated against 2 nM Myc-R12 on ROR1/K562 cells and competition assessed with an anti-Myc-Alexa647 secondary antibody, and the half maximal inhibitory concentration (IC₅₀) determined for respective clones.
(§2) Assays also were performed to assess competition (measured as half maximal inhibitory concentration (IC₅₀)) of the clones with the R12 scFv reference antibody for binding to ROR1-expressing cells, as described in Example 1. Percent (%) max ROR1 and % max competition, as compared to the R12 scFv reference antibody, were determined as described in Example 1.

[4] = biological target: T1, Human ROR1 (receptor tyrosine …); experiment: flow cytometry on ROR1-expressing cells; predicted plateau relative to R12 scFv = 100%
Procedure: (§3) Additionally, percent (%) maximum (max) binding to ROR1-expressing cells and % max competition with the reference antibody (R12 scFv) were calculated. Percent max binding and competition values were calculated based on predicted plateaus (measured by Prism® using four parameter non-linear regression), relative to values for R12 scFv binding and inhibition, respectively, assigned as 100% in each study.
as §2

[5] = biological target: T1, Human ROR1 (receptor tyrosine …); experiment: competition with R12 scFv on ROR1-expressing cells; predicted plateau relative to R12 scFv = 100%
Procedure: as §3, §2

[6] = biological target: T1, Human ROR1 (receptor tyrosine …); experiment: flow cytometry on ROR1-expressing K562 and CHOK1 cells, mean (n = 4)
[7] = biological target: T1, Human ROR1 (receptor tyrosine …); experiment: flow cytometry competition, competitor R12 scFv on ROR1-expressing cells, mean (n = 3)
Procedure: as §1, §2

[8] = biological target: T1, Human ROR1 (receptor tyrosine …); experiment: flow cytometry competition, competitor R12 scFv on ROR1-expressing cells, mean (n = 4)
Procedure: as §1, §2

[9] = biological target: T1, Human ROR1 (receptor tyrosine …); experiment: flow cytometry on ROR1-expressing K562 and CHOK1 cells (n = 1)
[10] = biological target: T1, Human ROR1 (receptor tyrosine …); experiment: flow cytometry on ROR1-expressing cells; predicted plateau relative to R12 scFv = 100%; remark: listed apart in the source
Procedure: as §3

[11] = biological target: T1, Human ROR1 (receptor tyrosine …); experiment: flow cytometry competition, competitor 2 nM Myc-R12 scFv on ROR1/K562 cells, mean (n = 2)
Procedure: as §1

[12] = biological target: T1, Human ROR1 (receptor tyrosine …); experiment: competition with Myc-R12 scFv on ROR1/K562 cells; predicted plateau relative to R12 scFv = 100%
Procedure: as §1, §3

[13] = biological target: T1, Human ROR1 (receptor tyrosine …); experiment: flow cytometry competition, competitor 2 nM Myc-R12 scFv on ROR1/K562 cells, mean (n = 3)
Procedure: as §1

T1 sequence (Q01973 30-937): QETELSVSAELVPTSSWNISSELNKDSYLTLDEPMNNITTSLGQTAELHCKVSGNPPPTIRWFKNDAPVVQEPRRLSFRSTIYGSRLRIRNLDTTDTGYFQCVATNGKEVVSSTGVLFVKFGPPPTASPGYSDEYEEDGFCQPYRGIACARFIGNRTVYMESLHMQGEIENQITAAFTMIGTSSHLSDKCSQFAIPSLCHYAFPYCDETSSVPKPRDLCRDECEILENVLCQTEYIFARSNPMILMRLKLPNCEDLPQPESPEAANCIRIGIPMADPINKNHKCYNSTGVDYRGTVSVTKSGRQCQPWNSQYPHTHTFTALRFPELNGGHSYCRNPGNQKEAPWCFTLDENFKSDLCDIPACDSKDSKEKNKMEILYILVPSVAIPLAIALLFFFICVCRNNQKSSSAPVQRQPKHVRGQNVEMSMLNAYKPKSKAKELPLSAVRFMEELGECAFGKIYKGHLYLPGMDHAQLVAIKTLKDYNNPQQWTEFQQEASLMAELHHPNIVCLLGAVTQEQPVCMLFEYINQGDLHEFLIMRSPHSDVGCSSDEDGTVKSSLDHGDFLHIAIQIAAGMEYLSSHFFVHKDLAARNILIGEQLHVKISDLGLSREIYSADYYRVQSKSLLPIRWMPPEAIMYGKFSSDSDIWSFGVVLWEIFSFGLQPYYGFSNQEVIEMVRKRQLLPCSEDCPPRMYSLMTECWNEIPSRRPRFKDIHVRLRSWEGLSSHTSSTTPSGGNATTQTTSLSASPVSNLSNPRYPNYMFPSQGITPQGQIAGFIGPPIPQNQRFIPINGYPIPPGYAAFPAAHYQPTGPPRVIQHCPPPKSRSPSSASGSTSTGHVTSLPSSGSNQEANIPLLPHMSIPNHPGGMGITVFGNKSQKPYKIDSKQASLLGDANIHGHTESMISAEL

B1: Clone V102 (VHH)
VHH: QVQLVESGGGLVQPGRSLRLSCTASGFTFGDYAMSWVRQAPGKGLEWVGFIRSKAYGGTTEYAASVKGRFTISRDDSQSIAYLQMDSLKTEDTAVYYCAKVGPSWDYYFDYWGQGTLVTVSS
notes: human VH-only single-domain antibody, no VL
In the case of B1, the EC50 [1] is reported as 129 nM.

B2: Clone 20 scFv (scFv)
scFv: QVTLKESGGGLVKPGGSLRLSCAASGFTFSNAWMSWVRQAPGKGLEWVGRIKSKTDGGTTDYAAPVKGRFTISRDDSKNTLYLQMNSLKTEDTAVYYCARDFGRWSYYFDYWSQGTLVTVSSNIQMTQSPSSLSASVGDRVTITCRASQSINKWLAWYQQKPGKAPKLLIHDASTLESGVPSRFSGSGSGTEFTLTISSLHPDDSATYYCQQLKSRPLSFGEGTKLEIK
notes: 262 differs only at the VH N-terminus; Printed without a linker
B2 was tested, and the EC50 [2] was 2.6 nM, the IC50 [3] was 4.7 nM and the “% Max Binding” value [4] was 97%. The “% Max Competition” value [5] was 77%.

B3: Clone V86 (VHH)
VHH: QVQLLESGGGLVQPGGSLRLSCAASGFTFSSYAMSWVRQAPGKGLEWVSAISGSGGSTYYADSVKGRFTISRDNSKNTLYLQMNSLRAEDTAVYYCARVIFGVVNIPDYWGQGTLVTVSS
notes: as for B1
With B3 the EC50 [1] was 97.7 nM.

B4: Clone 48 scFv (scFv)
scFv: QVTLKESGGGLVKPGGSLRLSCAASGFTFSNAWMSWVRQAPGKGLEWVGRIKSKTDGGTTDYAAPVKGRFTISRDDSKNTLYLQMNSLKTEDTAVYYCARDFGRWSYYFDYWSQGTLVTVSSGGGGSGGGGSGGGGSQSVLTQPSSVSGTPGQRVTISCSGSSSNIGSNYVYWYQQLPGTAPKLLIYRNNQRPSGVPDRFSGSKSGTSASLAISGLRSEDEADYYCAAWDDSLSGVVFGGGTKLTVL
B4 was tested, and the EC50 [6] was 9.2 nM, the IC50 [7] was 53.7 nM and the “% Max Binding” value [4] was 69%. For the same binder, the “% Max Competition” value [5] was 55%.

B5: Clone 40 scFv (scFv)
scFv: QVTLKESGGGLVKPGGSLRLSCAASGFTFSNAWMSWVRQAPGKGLEWVGRIKSKTDGGTTDYAAPVKGRFTISRDDSKNTLYLQMNSLRTEDTAVYYCARDFGRWSYYFDYWSQGTLVTVSSQPVLTQPHSVSESPGKTVTISCTRSSGNIASNFVQWYQRRPDGATTNVIYEDTQRPSGVSGRFSGSIDRSSNSASLTISGLRAEDEADYYCQSYDGRNLMFGGGTKVTVL
notes: the two differ at the VH N-terminus; Printed without a linker
In the case of B5, the EC50 [6] is reported as 3.2 nM, the IC50 [8] is reported as 22.8 nM and the “% Max Binding” value [4] is reported as 81%. For the same binder, the “% Max Competition” value [5] was 70%.

B6: Clone V316 (VHH)
VHH: EVQLVESGGGLVRPGGSLRLSCAASGLTFSRTWMSWVRQAPGKGLEWVASINDDGSEKYYVDSVKGRFTISRDNARNSLYLQMNRLRAEDTAVYYCARVDSERFLEWYYFDYWGQGTLVTVSS
notes: as for B1
With B6 the EC50 [9] was 28.7 nM, the “% Max Binding” value [10] was 78% and the IC50 [11] was 28.8 nM. For the same binder, the “% Max Competition” value [12] was 37%.

B7: Clone V353 (VHH)
VHH: QVTLKESGGGLVKPGGSLRLSCAASGFTFSNAWMSWVRQAPGKGLEWVGRIKSKTDGGTTDYAAPVKGRFTISRDDSKNTLYLQMNSLKTEDTAVYYCARDFGRWGYYFDYWSQGTLVTVSS
notes: as for B1
In the case of B7, the EC50 [1] is reported as 0.7 nM, the “% Max Binding” value [10] is reported as 35% and the IC50 [11] is reported as 0.4 nM. The “% Max Competition” value [12] was 62%.

B8: Clone V18 (VHH)
VHH: B7 VHH with T3Q, K5V, T80S, G106S, S113G
For B8, the EC50 [1] was 0.2 nM, the “% Max Binding” value [10] was 37% and the IC50 [13] was 3.4 nM. The “% Max Competition” value [12] was 54%.

B9: Clone V95 (VHH)
VHH: QVQLVESGGGLVKPGGSLRLSCAASGFTFSNAWMSWVRQAPGKGLEWVGRIKSKTDGGTTDYAAPVKGRFTISRDDSKKTLYLQMNSLKTEDTAVYYCARGSGELRFLESYYFDYWGQGTLVTVSS
notes: as for B1
With B9 the EC50 [1] was 35.5 nM, the “% Max Binding” value [10] was 61% and the IC50 [11] was 19 nM. The “% Max Competition” value [12] was 36%.
